# Assay results published in article PMC13147308, “Investigating the molecular mechanisms underlying the anti‐CRISPR function of AcrIIA13b protein” (The Febs Journal, 2025).
# B1: SauCas9 WED (wedge-like) domain, His-tagged (domain or fragment)
# chain: LYSTRKDDKGNTLIVNNLNGLYDKDNDKLKKLINKSPEKLLMYHHDPQTYQKLKLIMEQYGDEKNPLYKYYEETGNYLTKYSKKDNGPVIKKIKYYGNKLNAHLDITDDYPNSRNKVVKLSL
# B2: SauCas9 WED-PI domain construct, His-tagged (domain or fragment)
# chain: LYSTRKDDKGNTLIVNNLNGLYDKDNDKLKKLINKSPEKLLMYHHDPQTYQKLKLIMEQYGDEKNPLYKYYEETGNYLTKYSKKDNGPVIKKIKYYGNKLNAHLDITDDYPNSRNKVVKLSLKPYRFDVYLDNGVYKFVTVKNLDVIKKENYYEVNSKCYEEAKKLKKISNQAEFIASFYNNDLIKINGELYRVIGVNNDLLNRIEVNMIDITYREYLENMNDKRPPRIIKTIASKTQSIKKYSTDILGNLYEVKSKKHPQIIKKG
# Biological target: T1, Staphylococcus haemolyticus AcrIIA13b, wild type, with C-terminal 6xHis tag (Staphylococcus haemolyticus)
# T1 construct: Monomer and dimer peaks coexist in SEC; also called shAcrIIA13b; wild-type AcrIIA13b; source: E. coli BL21 (DE3), purified (Ni-NTA, SEC)
# Test: ITC; PBS pH 7.4, 20 °C; AcrIIA13b (500 μM) injected into the target protein (50 μM) in the cell, 25 injections; single-site model
# Details: both partners purified
row,Binder,Kd
1,B1,3210 nM
2,B2,120 nM
